Biological target: Rac1 (non-glucosylated) of mouse intestinal epithelial CT26 cells (mouse) (UniProt P63001)
Test: cell-based or functional assay

Substance	glucosylation of Rac1 in CT26 cells, 5 h (Western blot with anti-Rac1 clone 102): complete [ng/mL]
native TcdA (nTcdA) purified from culture supernatant of C. difficile strain VPI 10463 (from UniProt P16154 1-2710) (enzyme)	40
full-length recombinant Clostridium difficile toxin B (rTcdB), His-tagged, expressed in Bacillus megaterium (from UniProt P18177 2-2366) (enzyme)	0.4 to 2
native TcdB (nTcdB) purified from C. difficile strain VPI 10463 (from UniProt P18177 2-2366) (enzyme)	0.4 to 2
full-length recombinant Clostridium difficile toxin A (rTcdA), His-tagged, expressed in Bacillus megaterium (from UniProt P16154 1-2710) (enzyme)	40

From US20110065123A1
